# Several values for one entry are separate records, joined by “and”; a condition that tells them apart may be missing. Identical values can stand only once.
# B1: Haptoglobin 1-1 (Hp 1-1), dimer of two α1β units (complex)
# chain 1: VDSGNDVTDIADDGCPKPPEIAHGYVEHSVRYQCKNYYKLRTEGDGVYTLNNEKQWINKAVGDKLPECEAVCGKPKNPANPVQ
# chain 2: ILGGHLDAKGSFPWQAKMVSHHNLTTGATLINEQWLLTTAKNLFLNHSENATAKDIAPTLTLYVGKKQLVEIEKVVLHPNYSQVDIGLIKLKQKVSVNERVMPICLPSKDYAEVGRVGYVSGWGRNANFKFTDHLKYVMLPVADQDQCIRHYEGSTVPEKKTPKSPVGVQPILNEHTFCAGMSKYQEDTCYGDAGSAFAVHDLEEDTWYATGILSFDKSCAVAEYGVYVKVTSIQDWVQKTIAEN
# modifications: N-glycans at Asn184, Asn207, Asn211 and Asn241
# B2: Haptoglobin 2-2 (Hp 2-2), cyclic (α2)n(β)n oligomers (complex)
# chain 1: VDSGNDVTDIADDGCPKPPEIAHGYVEHSVRYQCKNYYKLRTEGDGVYTLNDKKQWINKAVGDKLPECEADDGCPKPPEIAHGYVEHSVRYQCKNYYKLRTEGDGVYTLNNEKQWINKAVGDKLPECEAVCGKPKNPANPVQ
# chain 2: ILGGHLDAKGSFPWQAKMVSHHNLTTGATLINEQWLLTTAKNLFLNHSENATAKDIAPTLTLYVGKKQLVEIEKVVLHPNYSQVDIGLIKLKQKVSVNERVMPICLPSKDYAEVGRVGYVSGWGRNANFKFTDHLKYVMLPVADQDQCIRHYEGSTVPEKKTPKSPVGVQPILNEHTFCAGMSKYQEDTCYGDAGSAFAVHDLEEDTWYATGILSFDKSCAVAEYGVYVKVTSIQDWVQKTIAEN
# modifications: N-glycans at Asn184, Asn207, Asn211 and Asn241
# B3: Haptoglobin 2-1 (Hp 2-1) oligomers from the serum of a single heterozygote donor (complex)
# chain 1: VDSGNDVTDIADDGCPKPPEIAHGYVEHSVRYQCKNYYKLRTEGDGVYTLNNEKQWINKAVGDKLPECEAVCGKPKNPANPVQ
# chain 2: VDSGNDVTDIADDGCPKPPEIAHGYVEHSVRYQCKNYYKLRTEGDGVYTLNDKKQWINKAVGDKLPECEADDGCPKPPEIAHGYVEHSVRYQCKNYYKLRTEGDGVYTLNNEKQWINKAVGDKLPECEAVCGKPKNPANPVQ
# chain 3: ILGGHLDAKGSFPWQAKMVSHHNLTTGATLINEQWLLTTAKNLFLNHSENATAKDIAPTLTLYVGKKQLVEIEKVVLHPNYSQVDIGLIKLKQKVSVNERVMPICLPSKDYAEVGRVGYVSGWGRNANFKFTDHLKYVMLPVADQDQCIRHYEGSTVPEKKTPKSPVGVQPILNEHTFCAGMSKYQEDTCYGDAGSAFAVHDLEEDTWYATGILSFDKSCAVAEYGVYVKVTSIQDWVQKTIAEN
# modifications: N-glycans at Asn184, Asn207, Asn211 and Asn241
# Key:
# Human hemoglobin (Hb) = Human hemoglobin (Hb) (human, UniProt P69905;P68871); assay: mass photometry
# Chain of Human hemoglobin (Hb) (P69905 whole entry, chain 1 of 2): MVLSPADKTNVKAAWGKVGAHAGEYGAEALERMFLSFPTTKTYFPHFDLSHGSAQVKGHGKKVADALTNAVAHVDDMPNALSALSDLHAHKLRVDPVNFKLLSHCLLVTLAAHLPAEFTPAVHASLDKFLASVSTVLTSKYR
# Chain of Human hemoglobin (Hb) (P68871 whole entry, chain 2 of 2): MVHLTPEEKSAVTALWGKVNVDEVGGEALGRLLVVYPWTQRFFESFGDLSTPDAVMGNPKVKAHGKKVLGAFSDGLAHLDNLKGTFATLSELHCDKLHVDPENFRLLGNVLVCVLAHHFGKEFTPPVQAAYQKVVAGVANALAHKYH
# mass photometry = target: the molecule itself; assay: mass photometry
# native MS = target: the molecule itself; assay: native MS
binder,measurement,setting,value
B1,stoichiometry N,Human hemoglobin (Hb),2 Hb(αβ) dimers per Hp 1-1 dimer
same,stoichiometry N,mass photometry,2 Hp (αβ) units
B2,stoichiometry N,native MS,< 7 Hp (αβ) units
same,stoichiometry N,Human hemoglobin (Hb),1 Hb(αβ) dimer per Hp (αβ) monomer
B3,stoichiometry N,native MS,3 Hp (αβ) units and 4 Hp (αβ) units and 5 Hp (αβ) units
